Literature values, collected in PMC4944212.
Where two headings read alike, the source gives them in different places.

How the values were obtained:
[1] = biological target: SosCat SosCat catalytic site (Homo sapiens) (UniProt Q07889)
[2] = biological target: SosCat SosCat (Homo sapiens) (UniProt Q07889); experiment: fluorescence titration
[3] = biological target: SosCat SosCat (Homo sapiens) (UniProt Q07889)

Kd [1]: 21 µM
Kd [2]: 5 µM
Kd [3]: 54 µM
Substance: H-Ras (from UniProt P01112)
